Laboratory results reported in publication PMC7052140.

Columns and labels:
[1] = target: Cyt1Aa E32Q activated toxin (Bacillus thuringiensis subsp. israelensis)
[2] = target: Cyt1Aa E45Q activated toxin (Bacillus thuringiensis subsp. israelensis)
[3] = target: Cyt1Aa activated toxin, wild type (Bacillus thuringiensis subsp. israelensis) (UniProt P0A382); assay: atomic force microscopy on supported lipid bilayers
[4] = target: Cyt1Aa Q168E activated toxin (Bacillus thuringiensis subsp. israelensis)

Cyt1Aa E32Q activated toxin (domain or fragment)
fold reduction of cytotoxicity on HEK293 cells against the WT toxin [1]: 2.4 fold

Cyt1Aa E45Q activated toxin (domain or fragment)
fold reduction of cytotoxicity on HEK293 cells against the WT toxin [2]: 14 fold

Cyt1Aa activated toxin, wild type (from UniProt P0A382 1-249) (domain or fragment)
stoichiometry N [3]: 56

Cyt1Aa Q168E activated toxin (domain or fragment)
cytotoxicity on HEK293 cells (LC50) [4]: > 30 µM
